B1: BDNF: brain-derived neurotrophic factor, neurotrophin, ligand of TrkB (protein, UniProt P23560 19-247, looked up)
Neurotrophic factor BDNF …: APMKEANIRGQGGLAYPGVRTHGTLESVNGPKAGSRGLTSLADTFEHVIEELLDEDQKVRPNEENNKDADLYTSRVMLSSQVPLEPPLLFLLEEYKNYLDAANMSMRVRRHSDPARRGELSVCDSISEWVTAADKKTAVDMSGGTVTVLEKVPVSKGQLKQYFYETKCNPMGYTKEGCRGIDKRHWNSQCRTTQSYVRALTMDSKKRIGWRFIRIDTSCVCTLTIKRGR
B2: NT-4: neurotrophin 4, ligand of TrkB (protein, UniProt P34130 81-210, looked up)
Neurotrophin-4: GVSETAPASRRGELAVCDAVSGWVTDRRTAVDLRGREVEVLGEVPAAGGSPLRQYFFETRCKADNAEEGGPGAGGGGCRGVDRRHWVSECKAKQSYVRALTADAQGRVGWRWIRIDTACVCTLLSRTGRA
B3: NGF: nerve growth factor, neurotrophin, preferred ligand of TrkA (protein, UniProt P01139 122-241, looked up)
Beta-nerve growth factor: SSTHPVFHMGEFSVCDSVSVWVGDKTTATDIKGKEVTVLAEVNINNSVFRQYFFETKCRASNPVESGCRGIDSKHWNSYCTTTHTFVKALTTDEKQAAWRFIRIDTACVCVLSRKATRRG

Tests used:
Format in all cases: cell-based
[1] = tested on: thapsigargin-induced NFAT-bla reporter activity; experiment: Effect of RNAi oligos on thapsigargin-induced NFAT-bla reporter activity in TrkA-, TrkB- and TrkC-NFAT-bla CHO-K1 cells; conditions: all three cell lines, 50 nM RNAi oligo, Thapsigargin 30 nM 5 h
Experimental: Cells were plated in 96-well assay plates (Corning, catalog number 3603) at 6,000 cells/well in 100 µL growth medium (DMEM containing 10% dialyzed FBS, 0.1 mM NEAA and 25 mM HEPES), and incubated in 37°C, 5% CO2 incubator overnight. Next morning, Stealth™ RNAi (Invitrogen, catalog number 10620318) and Lipofectamine^TM RNAiMAX (Invitrogen, catalog number 13778) complexes were prepared according to the manufacturer’s protocol and added to the wells (50 nM RNAi oligos and 1µL RNAiMAX/well). RNAi oligo targeting for beta-lactamase was used as the positive control and a random-sequenced oligo with 48% GC content (Med GC) as the negative control. A set of 2 oligos for each Trk was used:
Cells were incubated with RNAi oligos at 37°C for 32 hours, followed by a medium change. Cells were incubated in Assay Medium at 37 °C for 16 hours and then stimulated with respective ligands (NGF, 0.77 nM; BDNF, 1 nM; NT-3, 0.72 nM and Thapsigargin, 30 nM) for 5 hours before beta-lactamase assay was performed as described above.

[2] = biological target: T1, human TrkA (Homo sapiens, UniProt P04629); experiment: Neurotrophin dose response, beta-lactamase reporter assay in TrkA-NFAT-bla CHO-K1 cells; conditions: for EC50: 5 h stimulation, 0.1% DMSO, * values may not be accurate, curves did not reach saturation; for response of TrkA-NFAT-bla CHO-K1 cells (in words): up to 50 nM
T1 construct: Full length human TRKA, TRKB and TRKC cDNAs were synthesized by Blue Heron Biotechnology; expressed in transfected cells
Source text: (§1) NFAT beta-lactamase reporter line NFAT-bla CHO-K1 cells (Invitrogen, Carlsbad, CA, catalog number K1078) were transfected using Lipofectamine™ LTX transfection reagent (Invitrogen, Carlsbad, CA) with pcDNA6-TRKA, pcDNA6-TRKB and pcDNA6-TRKC and selected for blasticidin-resistance. Blasticidin-resistant TrkA transfected cells were stimulated with NGF (Invitrogen, catalog number 13257-019), TrkB transfected cells with BDNF (Invitrogen, catalog number PHC7074) and TrkC transfected cells with NT-3 (Invitrogen, catalog number PHC7034) for 5 hours before neurotrophin stimulated beta-lactamase expressing cells were collected by FACS as single cells onto 96-well plates. The survived clones that responded to the respective ligand were selected and expanded. The clone with the best response to each ligand was further tested in a 384-well format for the dose response of neurotrophins and inhibitors and in a 96-well format for RNAi knock-down.
(§2) Cells in a sub-confluency state (or cryopreserved cells) were resuspended in Assay Medium (DMEM with GlutaMAX™ (Invitrogen, catalog number 10569) supplemented with 0.1% dialyzed FBS, 0.1 mM NEAA, 25 mM HEPES, 100 U/mL Penicillin and 100 µg/mL Streptomycin) and plated in a 384-well assay plate (Corning, Lowell, MA, catalog number 3712) at 10,000 cells (32 μL) per well. 32 μL of Assay Medium without cells were plated in Cell-free Control wells on the same plate. 4 µL 1% DMSO was added to each well to reach final DMSO concentration of 0.1% to mimic the screening situation where compounds dissolved in DMSO are added to test wells. Cells were then stimulated with 4 µL/well 10 x ligands (NGF, BDNF, NT-4 (Invitrogen, catalog number PHC7024), NT-3 or Thapsigargin (Sigma, St. Louis, MO)) over the indicated concentration range (1 pM ~ 50000 pM) for 5 hours before adding 8 µL/well 6X LiveBLAzer™-FRET B/G Substrate mixture (Invitrogen, catalog number K1096) for 2 hours. Fluorescence intensity at excitation 406 nm and emission 460 nm and 530 nm were obtained using Tecan Safire^2 fluorescence plate reader (Tecan, Durham, NC) (Table 1). After subtracting the average fluorescence intensity from the Cell-free Control wells, the 460nm/530nm emission ratio was calculated. Response Ratio is a measurement of the assay window and is calculated as the 460nm/530nm Emission Ratio of the stimulated wells divided by the 460nm/530nm Emission Ratio of the unstimulated wells. Response Ratios were plotted against test ligand concentrations in log scale and then analyzed using Prism software (GraphPad Software, Inc. San Diego, CA). Sigmoidal dose-response equation with varying slope was used to fit the data and generate EC50 values. Z’-factor values were calculated as: Z’-factor = 1 - [(3 x stdevunstim + 3 x stdevmaxstim) / (avgmaxstim – avgunstim)].

[3] = biological target: T2, human TrkB (Homo sapiens, UniProt Q16620); experiment: Neurotrophin dose response, beta-lactamase reporter assay in TrkB-NFAT-bla CHO-K1 cells; conditions: for maximum response ratio, TrkB-NFAT-bla CHO-K1: 460nm/530nm ratio stimulated vs unstimulated; for EC50: 5 h stimulation, 0.1% DMSO
T2 construct: Full length human TRKA, TRKB and TRKC cDNAs were synthesized by Blue Heron Biotechnology; expressed in transfected cells
Source text: as §1, §2

[4] = biological target: T3, human TrkC (Homo sapiens, UniProt Q16288); experiment: Neurotrophin dose response, beta-lactamase reporter assay in TrkC-NFAT-bla CHO-K1 cells; conditions: for EC50: 5 h stimulation, 0.1% DMSO, * values may not be accurate, curves did not reach saturation; for response of TrkC-NFAT-bla CHO-K1 cells (in words): up to 50 nM
T3 construct: Full length human TRKA, TRKB and TRKC cDNAs were synthesized by Blue Heron Biotechnology; expressed in transfected cells
Source text: as §1, §2

[5] = used for stimulation in inhibitor assay

T1 sequence (P04629 33-796): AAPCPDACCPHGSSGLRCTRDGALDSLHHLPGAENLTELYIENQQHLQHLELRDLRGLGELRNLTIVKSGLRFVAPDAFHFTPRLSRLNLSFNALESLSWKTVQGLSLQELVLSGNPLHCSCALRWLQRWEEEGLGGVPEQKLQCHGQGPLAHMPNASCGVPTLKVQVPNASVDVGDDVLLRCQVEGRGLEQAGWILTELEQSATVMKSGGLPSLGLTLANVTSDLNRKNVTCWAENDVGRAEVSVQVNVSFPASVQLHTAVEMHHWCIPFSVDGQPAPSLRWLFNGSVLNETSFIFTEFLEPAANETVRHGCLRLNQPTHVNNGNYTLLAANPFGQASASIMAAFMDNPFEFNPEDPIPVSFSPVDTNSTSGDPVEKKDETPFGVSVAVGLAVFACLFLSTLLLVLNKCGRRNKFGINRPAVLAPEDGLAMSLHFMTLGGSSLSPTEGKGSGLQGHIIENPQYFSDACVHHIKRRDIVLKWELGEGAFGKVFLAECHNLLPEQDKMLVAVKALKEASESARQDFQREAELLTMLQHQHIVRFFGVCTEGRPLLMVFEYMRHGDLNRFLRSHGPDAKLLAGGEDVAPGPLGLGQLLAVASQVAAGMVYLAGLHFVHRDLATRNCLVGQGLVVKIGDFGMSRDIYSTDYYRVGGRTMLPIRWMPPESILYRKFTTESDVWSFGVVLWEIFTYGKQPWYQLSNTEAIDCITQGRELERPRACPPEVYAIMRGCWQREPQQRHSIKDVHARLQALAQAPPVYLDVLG
T3 sequence (Q16288 32-825 isoform Q16288-3 limits assumed): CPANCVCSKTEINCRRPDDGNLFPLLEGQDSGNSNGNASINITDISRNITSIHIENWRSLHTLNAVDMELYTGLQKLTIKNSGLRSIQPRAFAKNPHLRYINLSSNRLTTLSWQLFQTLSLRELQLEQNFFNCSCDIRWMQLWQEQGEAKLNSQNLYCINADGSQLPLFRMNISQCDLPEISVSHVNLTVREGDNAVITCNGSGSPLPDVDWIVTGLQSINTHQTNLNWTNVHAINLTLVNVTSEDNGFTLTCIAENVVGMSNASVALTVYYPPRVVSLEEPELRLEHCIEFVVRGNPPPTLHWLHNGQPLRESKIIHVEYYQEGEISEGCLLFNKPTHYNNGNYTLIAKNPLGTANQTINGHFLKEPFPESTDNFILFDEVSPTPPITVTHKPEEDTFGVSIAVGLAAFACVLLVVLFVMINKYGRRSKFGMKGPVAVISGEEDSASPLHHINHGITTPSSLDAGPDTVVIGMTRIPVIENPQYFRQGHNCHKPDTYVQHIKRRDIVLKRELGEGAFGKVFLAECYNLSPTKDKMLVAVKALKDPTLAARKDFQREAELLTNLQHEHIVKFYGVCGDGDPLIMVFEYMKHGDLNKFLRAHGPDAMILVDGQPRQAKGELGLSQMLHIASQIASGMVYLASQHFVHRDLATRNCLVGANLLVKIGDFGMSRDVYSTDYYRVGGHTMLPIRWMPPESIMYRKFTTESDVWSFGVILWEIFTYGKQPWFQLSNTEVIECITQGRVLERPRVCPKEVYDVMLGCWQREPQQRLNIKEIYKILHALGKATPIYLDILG
T2 sequence (Q16620 32-838 isoform Q16620-4 limits assumed): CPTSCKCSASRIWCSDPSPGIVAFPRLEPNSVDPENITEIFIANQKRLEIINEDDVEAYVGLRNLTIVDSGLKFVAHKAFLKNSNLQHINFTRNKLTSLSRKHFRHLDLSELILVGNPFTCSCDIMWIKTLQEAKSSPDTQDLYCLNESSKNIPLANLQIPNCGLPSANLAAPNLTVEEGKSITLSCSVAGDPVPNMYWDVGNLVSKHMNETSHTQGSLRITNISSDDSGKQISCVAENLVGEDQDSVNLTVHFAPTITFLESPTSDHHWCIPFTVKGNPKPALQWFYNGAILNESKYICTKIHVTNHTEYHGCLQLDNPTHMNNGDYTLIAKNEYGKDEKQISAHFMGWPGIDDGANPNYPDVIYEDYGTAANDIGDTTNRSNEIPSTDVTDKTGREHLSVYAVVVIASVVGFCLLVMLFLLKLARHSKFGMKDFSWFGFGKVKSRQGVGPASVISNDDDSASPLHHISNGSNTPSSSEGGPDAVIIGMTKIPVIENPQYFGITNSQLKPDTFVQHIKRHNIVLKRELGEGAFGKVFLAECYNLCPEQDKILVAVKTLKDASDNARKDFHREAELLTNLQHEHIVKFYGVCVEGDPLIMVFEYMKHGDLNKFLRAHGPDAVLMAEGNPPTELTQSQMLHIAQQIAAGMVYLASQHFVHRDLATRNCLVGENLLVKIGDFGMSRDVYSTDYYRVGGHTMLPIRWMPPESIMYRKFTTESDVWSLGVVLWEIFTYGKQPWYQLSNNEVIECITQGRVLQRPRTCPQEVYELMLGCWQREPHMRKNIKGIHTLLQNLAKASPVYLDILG

| Molecule | inhibitory effect on thapsigargin-induced NFAT-bla reporter activity [1] | effect on thapsigargin-induced NFAT-bla reporter activity (in words) [1] | EC50 [2] | response of TrkA-NFAT-bla CHO-K1 cells (in words) [2] | maximum response ratio, TrkB-NFAT-bla CHO-K1 [3] | EC50 [3] | EC80 concentration, TrkB cells [3, 5] | EC50 [4] | response of TrkC-NFAT-bla CHO-K1 cells (in words) [4] | maximum response ratio / response over baseline, TrkA-NFAT-bla CHO-K1 ([2]; 460nm/530nm ratio stimulated vs unstimulated) | EC50 ([2]; listed as NGF 2.5s) | EC80 concentration, TrkA cells [2, 5] | response of TrkB-NFAT-bla CHO-K1 cells (in words) ([3]; up to 50 nM) |
| --- | --- | --- | --- | --- | --- | --- | --- | --- | --- | --- | --- | --- | --- |
| TRKB2: Stealth RNAi oligo for TrkB, ACACCACGAACAGAAGUAAUGAAAU (Stealth RNAi oligo, modification pattern not given here) | about 50% |  |  |  |  |  |  |  |  |  |  |  |  |
| TRKC2: Stealth RNAi oligo for TrkC, CCAGACCAAUCUGAACUGGACCAAU (Stealth RNAi oligo, modification pattern not given here) |  | did not inhibit |  |  |  |  |  |  |  |  |  |  |  |
| B1 |  |  | > 50 nM | minimal effect | 14 | 0.39 nM | 1 nM | 28 nM | only at the highest concentration (50 nM) tested |  |  |  |  |
| B2 |  |  | > 50 nM | minimal effect | 13 | 3.5 nM |  | > 50 nM | did not show any response |  |  |  |  |
| B3 |  |  | 0.044 nM |  |  | > 50 nM |  | > 50 nM | did not show any response | 5.5 fold | 0.04 nM | 0.77 nM | did not respond at all |

From paper PMC2774616, “Cellular Assays for High-Throughput Screening for Modulators of Trk Receptor Tyrosine Kinases” (Current Chemical Genomics, 2008)
